The series in a line: yeast display, Sf9 membrane polyspecificity reagent, FACS + sequencing; frameworks hold sequencing errors. A digest of the protocol: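 Galactose induction of a Saccharomyces cerevisiae BJ5465 synthetic nanobody display library ran 36–48 hours. The cells were then stained for 1 hour at 4 °C with 10% biotinylated, detergent-solubilized Sf9 membrane reagent, pulled down on streptavidin microbeads and FACS-sorted into low and high (top ~1%) gates on expression and reagent-binding fluorescence. Labels for polyreactivity follow the gate of origin.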
Take “QVQLVESGGGLVQAGGSLRLSCAASGSTFAGNAMGWYRQAPGKERESVAAIDSSTGSTYYADSVKGRFTISRDNAKNTVYLQMTSLKPEDTAVYYCNKTSFLVKLDYWGQGTHVTVSS”: the “polyreactivity (PSR sort gate)” value is “low polyreactivity”.

Turning to “QVQLVESGGALVQAGGSLRLSCAASGIILYYYAMGWYRQAPGKERELVAAISSGGNTYYADSVKGRFTISRDNAKNTVYLQMNSLKPEDTAVYYCAAVTVIGGEYDYWGQGTQVTVSS”, the “polyreactivity (PSR sort gate)” value is “low polyreactivity”.

“QVQLVESGGGLVQAGGSLRLSCAASGSTFNYNAMGWYRQAPGKERELVAAITYSGSSTYYADSVKGRFTISRDNAKNTVYLQMNSLKPEDTAVYYCAKDWYYLRRNYDYWGQGTQVTVSS”: the “polyreactivity (PSR sort gate)” value is “high polyreactivity”.

Turning to “QVQLLESGGGLVQAGGSLRLSCAASGYFFSDNTMGWYRQAPGKERELVAAITSGGSSYYADSVKGGFTISRDIAKNTVYLQMNSLKQEDTAVYYCDKDVLHVRRVSGQYYSVDYWGQGTQVTVSS”, the “polyreactivity (PSR sort gate)” value is listed as “low polyreactivity”.

In the case of “QVQLVESGGCLVQAGGSLRLIWDASGSIFKRYAMGWYRQAPGKERELVAAISYSGGSTYYADSVKGRFTISRDNAKNTVYLQMNSLKPEDTAVYYCAKRSTSRGYDYWGQGTQVTLSS”, the “polyreactivity (PSR sort gate)” value is recorded as “high polyreactivity”.

As for “QVQLVESGGGIFQAGGSLRLSCAASGRIYNYYAMGWTRQAPGQEREFVAAITRSGGRPYYADSVKGRFTISRDKGKNTVYLLMNSLKPEDTAVYYFAAPFGTYAYDYWGQGTLVTVSS”, the “polyreactivity (PSR sort gate)” value was “high polyreactivity”.

Turning to “QVQLVESGGGLVQAGGSLRLSCAASGSTFPGYAMGWYRQAPGKERELVAAISKRGGSTRYADSVKGRFTISRDNAKNTVYLQMNSLKPEDTAVYYCNNRSQISHYRRHDYWGQGTQVTVSS”, the “polyreactivity (PSR sort gate)” value is “high polyreactivity”.

On to “QVQLVESGGGLVQAGGSLRLSCAASGRTFADYVMGWYRQAPGKERELVAAITSSGGSTYYADSVKGRFTISRDNAKNTVYLQMNSLKPEDTAVYYCAAQQSPSVDYWGQGTQVTVSS”, for which the “polyreactivity (PSR sort gate)” value was “low polyreactivity”.

“QVQLVESGGGLVQAGGSLRLSCAASGSTFSPNAMGWYRQAPGKERELVAAITGGGSTYADSVKGRFTISRDNAKNTVYLQMNSLKPEDTAVYYCNRDYRSDLGYADQSWTDQYDYWGQGTQVTVSS”: the “polyreactivity (PSR sort gate)” value is “low polyreactivity”.

On to “QVQLVESGGGLVHAGGSLRLSCAASGFTCPYYPMGWYRQAPGKERELVDVISRSGGSTYYADSVKGRFTISRDNAKNTVYLQMNSLKPEDTAVYYCAKRYSLTGGKRTGYYWGQGTQVTVSS”, for which the “polyreactivity (PSR sort gate)” value is listed as “high polyreactivity”.

“QLQLQESGGGLVQAVVDLRQSCAESVNIFRDYIMGCYRQAPGKELEFVAGIDRGANTNFADSEKGRFTISRDNAKNTVYLQMNSLKPEDTAVYYCAVHTAIVPEFIYWGLGTQVTVSS”: the “polyreactivity (PSR sort gate)” value is “low polyreactivity”.

Turning to “QVQLVESGGGLVQAGGSLRFSCAASGRICVIYAIGWYRQAPGKERELVAVINDDGSTNYADSVKGRFTISRDNAKNTVYLQMNSLKPEDTAVYYCATDYVRHAGWRRYDYWGQGTQVTVSS”, the “polyreactivity (PSR sort gate)” value is “low polyreactivity”.

Take “QVQLVESGGGLVQAGGSLRLSCAASGITFTRYAMGWYRQAPGKEREFVAAIRRSGGNTYYADSVKGRFTISRDNAKNTVYLQMNSLKPEDTAVYYCAASPDIIGTSGEDDYWGQGSQVTVSS”: the “polyreactivity (PSR sort gate)” value is listed as “low polyreactivity”.

Take “QVQLVESGGGLVQAGGSLRLSCAASGSIFSFYAMGWYRPAPGKERELVAAISYRGGSTYYADSVKGRFTISRDNAKNTVYIQMNSLKPVDSAVSYCAAARFPVFIQGYRMEYWGQGTQVTVSS”: the “polyreactivity (PSR sort gate)” value was “low polyreactivity”.

Consider “QVQLVESGGGLVQAGGSLRLSCAASGRTFFTYAMGWYRQAPGKERELVASITRSGVSTYYADSVKGRFTISRDNAKNTVYFQMNSLKPEDTAVYYCNTRYPYYWPIYGYWGQGTQVTVSS”, for which the “polyreactivity (PSR sort gate)” value was “high polyreactivity”.

“QVQLVESGGGLVQAGGSLRLSCAASGGTFPYNAMGGYRQAPGKERELVAVITSGDGTYYADSVKGRFTISRDNAKNTVYLQMNSLKPEDTAVYYCAADYVVWFSFVYVVEYDYWGQGTQVTVSS”: the “polyreactivity (PSR sort gate)” value is recorded as “low polyreactivity”.

Take “QVQLVESGGGLVQAGGSLRISCDASGSTFKLYPMGWYRQAPGKEREFVAAISRSGGSTNYADSVNGRFTISRDNAKNTVYLQMNSLKPEDTAVYYCAARYPGNYDYWGQGTQVTVSS”: the “polyreactivity (PSR sort gate)” value is listed as “high polyreactivity”.

On to “QVQLVESGGGLVQAGGSLRLSCAASGSTFRNYAMGWYRQAPGKERELVAAITKRGGTTYYADSVKGRFTISRDNAKNTVYLQMNSLKPEDTAVYYCATRQLSKVKDMDYWGQGTQVTVSS”, for which the “polyreactivity (PSR sort gate)” value is “high polyreactivity”.

In the case of “QVQLVESGGGLVQAGGSLRLSCAASGSTFSYYAMGWYRQAPGKERELVAAIRSDGGSTYYADSVKGRFTISRDNAKNTVYLQMNSLKPEDTAVYYCNAPYRRSAKFRRYGYDYWGQGTQVTVSS”, the “polyreactivity (PSR sort gate)” value is listed as “high polyreactivity”.

With “QVHLVESGGGLDQARGSHRLSCAASGYTIPTYAMGWYRHAPGKERELVAAINWSGSRTYYADSVKGRFTISRDNAKNTVYLQMNSVKPEDTAFYYCAAYAYRVGPIRRHDYWGQGTQVTVSS”, the “polyreactivity (PSR sort gate)” value is reported as “high polyreactivity”.

In the case of “QVQLVESGGGLVQAGGSLRLSSDASGNTFVYNAMGWYRQAPGKERKLVAGITKTGGRTYYADSVKGRFTISRDNAKNTVYLQMNSLKPDDTAVYYCAARPWNDGYYVGRFHMDYWGQGTQVTLSS”, the “polyreactivity (PSR sort gate)” value was “low polyreactivity”.

Regarding “QVQLVESGGGLVQAGGSLRLSCAASVRIFRFYVMGWYRQAPGKERELVAAISKRGASTSYADSVKGRFTISRDNAKNTVYLQMNSLKPEDTAVYYCAASAKRGEMGYWGQGTQVTVSS”, the “polyreactivity (PSR sort gate)” value is reported as “high polyreactivity”.

As for “QVQLVESGGGLVQAGGSLRLSCAASGSIFFYYAMGWYRQAPGKERELVASISTDGSTYADSVKGRFTISRDNAKNTVYLQMNSLKPEDTAVYYCATRGAEAERFASYDFDYWGQGTQVTVSS”, the “polyreactivity (PSR sort gate)” value is recorded as “low polyreactivity”.

Turning to “QFQLVESGGGLVQAGGSLRLICAASGIIFKLNAMGWYRQAPGIETELVAAITYRGGTTYYADSVKGRFTISRDNAKNTVYVQMNSLKPEDTAVYYCAVAVTSYSSKKLYYWGQGTQVTVSS”, the “polyreactivity (PSR sort gate)” value is given as “low polyreactivity”.

As to “QVQLVESGGGLVQAGGSLRLSCAASGRIIRAYDMGWYRQAPGKERELVAVIRYRGGTTYYADSVKGRFTISRDNAMNTVYLQMYSLKPEDTAVYYCATEDNYHWWYTGVSYGEHDYLGQGTQVTVSS”, the “polyreactivity (PSR sort gate)” value is given as “low polyreactivity”.

Take “QVQLVESGGGLVQAGGSLRLSCAASGRIVWYAMGWYRQAPGKERELVAAINWSGGSTYYADSVKGRFTISRDNAKNTVYLQMNSLKPEDTAVYYCAADVRNYWLEYEYWGQGTQVTVSS”: the “polyreactivity (PSR sort gate)” value is recorded as “low polyreactivity”.

On to “QVQLVESGGGLVQAGGSLRLSCAASGSSLDYYAMGWSRQAPGKERDLLAAITWSGGRTSYADSVTGRFTISRDNAKNTVYLQMNSLKPEDTAVYYGAAESFLYLLDRASGWQYEYWGQGTQVSVSS”, for which the “polyreactivity (PSR sort gate)” value is “low polyreactivity”.

Take “QVQLVESGGGLVQAGGSLRLSCAPSGRIFRYNAMGWYRQAPGKERELVAAITSGGSTNYADSVKGRFTISRDNAKNTVYLQMNRLKPEDTAVYYCAVTGYRPYAYRRRYPYDYWGQGTQVTVSS”: the “polyreactivity (PSR sort gate)” value is listed as “high polyreactivity”.

In the case of “QVQLVESGGGLDQAGGSLRLSCAASGRTFADYAMGWYRQAPGNERELVADISKRGGSTYFADSVKGRFTISRDNAKNTFYLQMNSLKAEDTAVYYCAAGWYYYPTFYKVKSYNYWGQGTQVTVSS”, the “polyreactivity (PSR sort gate)” value was “high polyreactivity”.

“QVQLVESGGGLVQAGGSLRLSCAASGIIFRVNTIGWDRQAPGKEREMVARITGAGNTYYADSVNGRCTISRDNAKNSVYLQMNSLKPKDTAVYYCAVREFDKRRVIYYYWGQGTQVTVLS”: the “polyreactivity (PSR sort gate)” value is given as “high polyreactivity”.

Take “QVQLVESGGGLVQAGGSLRLSCADSGSTFHPYAMGWYRKAPGKERELVAAISWTGGRTYYADSVKGRFTISRDNSKNTVYLQMNSLKPEDTAVYYCAARTYGKVGYWGQGTQVTVSS”: the “polyreactivity (PSR sort gate)” value is “high polyreactivity”.

On to “QVQLVESGGGLDQAGGSLRLSCAASGYTFGRNAMGWYRQAPGKERELVATISQRGGSTYYADSVKGRFTISRDNANNTVYLQMNSLKPEDTAVYYCAAGPIYRYRRYYYWGQGTQVTVSS”, for which the “polyreactivity (PSR sort gate)” value is “high polyreactivity”.

In the case of “QVQLVESGGGLVQAGGSLRLRCAASGRIFRLYAMGWYRQAPGKERELVAAIRSSGGSTYADSVKGRFTISRDNAKNTVYLHMNSLKPEDTAVYYCAARWGRLPEQYRYDYWGQGTQVTVSS”, the “polyreactivity (PSR sort gate)” value is on record as “high polyreactivity”.

In the case of “QVQLVESGGGLVHAGGSLRLSCAASGRTFQWNRMVWYRQAPGKERELVATIRRGGSTNYADSVKGRFTISRDNAKNTVYLQMNSLKPEDTAVYYCAADRRYPGGWGFEYNYWGQGTQVTVSS”, the “polyreactivity (PSR sort gate)” value is reported as “low polyreactivity”.

Consider “QVQLVESGGGLVQAGGSLRLSCAASGRTFSGYAMGWYRQAPGKERELVAAISWRGGRTYYADSVKGRFTISRDNAKNTVYLQMNSLKPEDTAVYYCATTVGDAGRRYYYWGQGTQVTVSS”, for which the “polyreactivity (PSR sort gate)” value was “high polyreactivity”.

For the sequence “QVQLVETGGGLVQAGGSLRLSCAASGFTIWKYAMGWYRQAPGKERELVAAISLGGGRTYYADSVKGRFTISRDNANNTVYLQMNSLKPEDTAVYYCNAKIVSSVLYDYWGQGNQVTVSS”, the “polyreactivity (PSR sort gate)” value is recorded as “low polyreactivity”.

“QVQLVESGGGLVQAGGSLRLSCAASGRTFYQYTMGWYRQAPGKERELVAAITTSTGNTYYADSVKGRFTISRDNAKNTDYLQMNSLKPEDTAVYYCAADTVWRLDYWGQGTQVTVSS”: the “polyreactivity (PSR sort gate)” value is “low polyreactivity”.

Take “QVQLVESGGGLVQAGGSLRLSCAASGRSFGLYAMGWYRQAPGKERELVAAISYSGGRTYYADSVKRRFTLSRDNAKKTVYLQRNILKPEDTGVYYCNKAWFPYYYYRFDYWGQGTQVTVSS”: the “polyreactivity (PSR sort gate)” value is listed as “high polyreactivity”.

“QVQLVESGGGLVQAGGSLRLSCAASGRTFSYNAMGWYRQAPGKERELVATISWGGGSTYYADSVKGRFTISRDNAKNTVYLQMNSQKPEDTAVFYCARVGWYAYLIDRDYWGQGSQVTVSS”: the “polyreactivity (PSR sort gate)” value is recorded as “high polyreactivity”.

Regarding “QVQLVESGGGLVQAGGSLRLSCAASGRTLGRNAMGWYRQAPGKERELVASISSGGSTNYADSVKGRFTISRDNAKNTVYLQMNSLKPEDTAVYYCNKRYRSLYSSGYDYWGQGTQVTVSS”, the “polyreactivity (PSR sort gate)” value was “high polyreactivity”.

For the sequence “QVQIVESGGGLVQAGGSLRLSCAASGFILNYYGMGWYRQAPGKERELVATISRGASTNYADSVKGRFTISRDNAKNTVYLQMISLKPEETEVYSCAKDYGDWGQGTQVTVSS”, the “polyreactivity (PSR sort gate)” value is recorded as “low polyreactivity”.

(Values after the nanobody polyreactivity screen of Harvey et al. (2022).)
